How the values were obtained:
[1] = PGE2 competition ELISA, format not stated (biotin-PGE2 or ^3H-PGE2); assay type: binding; conditions: humanized antibodies table
Experimental: Competition enzyme linked immunosorbent assays were performed to determine prostaglandin binding specificity for antibodies that bind prostaglandin E2, according to at least one of the two following methods.
ELISA plates (Costar 3369, Corning, N.Y.) were coated with 50 μl/well of anti-host Fc IgG (Sigma, St. Louis, Mo.) at 2 μg/ml in PBS (Invitrogen, Carlsbad, Calif.). Following an overnight incubation at 4° C., the plate was blocked with 200 μl Superblock (Pierce #37535, Rockford, Ill.). The IgG samples were diluted to 6 μg/ml in Assay Buffer (10% Superblock in PBS containing 0.05% Surfactamps (Pierce #37535, Rockford, Ill.). The PGE2-biotinamide was diluted to 3 nM in Assay Buffer. A titration curve in Assay Buffer was prepared for the prostaglandins PGA2 (Cayman Chemicals, Ann Arbor, Mich.), PGD2 (Cayman Chemicals, Ann Arbor, Mich.) and PGE2 (Cayman Chemicals, Ann Arbor, Mich.) starting at 300 nM by a 1:10 serial dilution. The reagents were added to tubes at a volume of 50 μl each/tube and preincubated for 1 hour at room temperature. Following the preincubation, the mix was transferred to the blocked plates and allowed to incubate for 1 hour at room temperature. Next, the plates were washed four times with Tween 20-Tris buffered solution (TTBS). Streptavidin polyhrp40 in Assay Buffer (Fitzgerald Industries, Concord, Mass.) at a 1:5000 dilution was then added to the wells and incubated for 45 minutes at room temperature. A final wash step was performed and the plates were developed using a single step TMB system (Sigma #T8665, Sigma, St. Louis, Mo.) and 100 μl/well 2N H2SO4. Plates were read at 450 nm on a Molecular Devices Spectramax plate reader (Sunnyvale, Calif.). […] IC50 number was determined using GraphPad Prism 5 (GraphPad Software, La Jolla, Calif.). The cross reactivity index was then calculated by IC50 of PGE2/IC50 of other prostaglandin(s).
Alternatively, prostaglandin selectivity was determined using a ^3H-PGE2 competition ELISA. Plates were coated with 50 μL/well of 5 μg/ml of goat anti-human IgG (Fc) (Thermo Scientific # 31170, Hudson, N.H.) or goat anti-mouse IgG (Fc) (Thermo Scientific # 31125, Hudson, N.H.) in PBS and incubated overnight at 4° C. The following day plates were flicked and blotted dry. Plates were blocked with 200 μL/well of Superblock (Thermo Scientific # 37515, Hudson, N.H.), 1 hour at room temperature. Plates were flicked and blotted dry. Monoclonal antibodies were diluted to 0.04 μg/ml in PBST (Abbott Bioresearch Center, Worcester, Mass.)/10% Superblock and 50 μL of each was added to each well (2 ng/well) of the pre-blocked ELISA plate and incubated for 1 hour at room temperature. Wells were washed 3 times with PBS/0.1% Tween-20. ^3H-PGE2 (Perkin Elmer # NET-428, Waltham, Mass.) was diluted in PBST/10% Superblock to 6 nM (2× stock). Each prostaglandin (Cayman Chemicals, Ann Arbor, Mich.) was prepared in PBST+10% Superblock at various concentrations ranging from 2000 μM (2× stock) to 0.00004 μM (2×). Equal volumes of the ^3H-PGE2 solution and of each prostaglandin dilution were mixed. Fifty microliters of this mixture was then added to each well of the plate and incubated for 1 hour at room temperature. Wells were washed manually 6 times with PBST/10% Superblock and 50 μL of scintillation fluid (Perkin Elmer # 6013621, Waltham, Mass.) added to each well. Plates were read using a TopCount reader (Perkin Elmer, Waltham, Mass.) with a 5 minute count delay. IC50 number was determined using GraphPad Prism 5 (GraphPad Software, La Jolla, Calif.). The cross reactivity index was then calculated by IC50 of PGE2/IC50 of other prostaglandin(s)
Several antibodies, named 19C9, 4F10 and 15F10 specific for PGE2 were isolated. […] The specificity of these antibodies for PGE2 was further determined by a competition ELISA with various prostaglandins as described in Example 1.B (Table 2). […]

[2] = Accelerated stability screening monitored by SEC; assay type: physicochemical; conditions: SEC
Experimental: Size exclusion chromatography was used to separate proteins based on size. Proteins are carried in an aqueous mobile phase and through a porous stationary phase resin packed in a column. The retention time in the column is a function of the hydrodynamic size of the protein and the size of the pores in the packed resin bed. Smaller molecules can penetrate into smaller pores in the resin and are retained longer than larger molecules. Upon elution from the column the proteins are detected by UV absorbance. The SEC method used a TSK gel guard (TOSOH Biosciences, Montgomeryville, Pa., cat. no. 08543) and a TSK gel G3000SWxL (TOSOH Biosciences, Montgomeryville, Pa., cat. no. 08541). The mobile phase was 100 mM Na2HPO4, 200 mM Na2SO4, pH 7.0. The flow rate was 0.3 mL/minute. Injection volume was 20 μL of 1 mg/mL sample. The column temperature was room temperature. The autosampler temperature was 2-8° C. The total run time was 50 minutes. The detection was based on UV absorbance at 214 nm wavelength, with band width set at 8 nm, using reference wavelength at 360 nm with band width 100 nm.
(§1) The stability of a series of clones (i.e., anti-PGE2 antibodies) of the parent anti-PGE2 antibody was assessed by using intrinsic thermodynamic clone stability determination using DSC (0.79 mg/mL clone concentration, formulated at pH 6 in a 10 mM citrate, 10 mM phosphate buffer) and by accelerated stability screening (0.79 mg/mL clone concentration, formulated at pH 6 in a 10 mM citrate, 10 mM phosphate buffer, for 7 days at 50° C.) where clone stability was monitored with SEC (Table 15).

[3] = Intrinsic thermodynamic stability by DSC; assay type: physicochemical
Experimental: The thermal stability of the anti-PGE2 antibodies was assessed using a DSC instrument. The DSC instrument used was an automated VP-DSC equipment with Capillary Cell (Microcal, GE Healthcare Ltd./Microcal, Buckinghamshire, UK). Unfolding of molecules was studied applying a 1° C./minute scan rate over a 25° C.-95° C. temperature range for samples at 1 mg/mL. Additional measurement parameters applied were a fitting period of 16 seconds, a pre-scan wait time of 10 minutes, and measurements were performed in none-feedback mode. Per individual measurement, 420 μL of sample/blank were filled into the DSC measurement sample holder, with a plate fill scheme as provided below. The thermograms obtained were fitted to a non two state model to obtain the midpoint temperatures and enthalpies of the different transitions.
as §1

[4] = Biotin-PGE2 ELISA (PGE2-biotinamide binding to captured IgG)

B1: Hu2B5.6: humanized 2B5-8.0; VH SEQ ID NO 70, VL SEQ ID NO 71 (antibody, V domains shown)
VH: EVQLVQSGAEVKKPGASVKVSCKASGYTFTKYWLGWVRQAPGQGLEWMGDIYPGYDYTHYNEKFKDRVTLTTDTSTSTAYMELSSLRSDDTAVYYCARSDGSSTYWGQGTLVTVSS
VL: DVVMTQTPLSLPVTPGEPASISCTSSQNIVHSNGNTYLEWYLQKPGQSPQLLIYKVSNRFSGVPDRFSGSGSGTDFTLKISRVEAEDVGVYYCFQVSHVPYTFGGGTKVEIKR
Cross Reactivity Index (%) PGA2 ([1]; PGA2): 0.15% | Cross Reactivity Index (%) PGD2 ([1]; PGD2): <0.01% | Cross Reactivity Index (%) PGE1 ([1]; PGE1): 11% | Aggregate (%) ([2]; 7 days storage at 50° C.): 2.1577% | Fragment (%) ([2]; 7 days storage at 50° C.): 4.0253% | Monomer (%) ([2]; 7 days storage at 50° C.): 93.817% | Fragment (%) ([2]; start of stability study): 2.7275% | Monomer (%) ([2]; start of stability study): 95.446% | Aggregate (%) ([2]; start of stability study, 0.79 mg/mL, pH 6): 1.8265% | Tm1 (° C.) ([3]; 0.79 mg/mL, pH 6, 10 mM citrate, 10 mM phosphate): 73.035 °C | Tm2 (° C.) ([3]; same buffer): 75.585 °C | Tm3 (° C.) ([3]; same buffer): 82.95 °C | EC50 [4]: 89 pM
